The series deals with the molecule itself. In words: X-ray crystal structure of the complex.

B1: P94S mutant F2F3 fragment of human CPSF30 (variant used in the X-ray crystal structure determination) (other)
chain: SGEKTVVCKHWLRGLCKKGDQCEFLHEYDMTKMSECYFYSKFGECSNKECPFLHIDPESKI
notes: also called F2F3 with Ser in place of Pro at position 94; F2F3-A; not shown: N-terminal hexaHis tag
Consider B1, for which the binding result is “binds”.
